Tested on: Bacillus subtilis
Assay: cleaved RNA product abundance (RNA/gDNA barcode ratio) relative to median wild-type variant (ratio to wild type); higher = more accumulation of the downstream cleavage product
In short: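 The B. subtilis chromosome carried reporter mRNAs, truncated aprE or tetM, containing barcoded RNase Y cleavage-site windows mutagenized using oligos with a 9% error rate. After growth in LB at 37°C from OD600 0.0003 to 0.3, cleaved RNA was gel-selected, reverse transcribed and barcode-sequenced next to genomic DNA barcodes, with UMI collapsing. Each construct's RNA:gDNA barcode ratio was scaled to the median construct with the unmutated site. That scaled ratio is reported as cleaved product abundance.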

[1] = experiment (reporter, strain, medium): exp 8a: truncated aprE reporter, strain BJT201 with 2% xylose (RNase J1 expressed), cleavage site: glnRA (positions -5 to +31 mutated)
[2] = experiment (reporter, strain, medium): exp 2b: truncated aprE reporter, strain BJT200, cleavage site: cggR-gapA (positions -7 to +36 mutated)
[3] = experiment (reporter, strain, medium): exp 4a: truncated aprE reporter, strain BJT201 with 2% xylose (RNase J1 expressed), cleavage site: cggR-gapA (positions -7 to +36 mutated)

Sequence	cleaved RNA product abundance [1]	cleaved RNA product abundance [2]	cleaved RNA product abundance [3]
CGACATGTCCCGCTTCTTTCATTAATCCGTTAGCAACTATTTTGCTTTATACATTTACCTTTTAAGAGGAGGAAT	0.459	–	–
ACAGACGAAGGAGCCGCAAAGAAGTTATAAAGGGATGAATAATCACTCAATATAAATATCTCTCACTTATTTAAA	–	0.107	0.169
CGACATGTCCCGCTTCTTTCATTAATCCCTTAGCAACTGTTTTACTATATACATTTACCTTTTAAGAGGAGGAAT	0.0875	–	–
CGACATGTCCCGCTTCTTTCATTAATCCGTTACCAACTGTTTTGCTATATACTTTTACCTTTTAAGAGGAGGAAT	0.145	–	–
ACAGACGAAGGAGCCGCAAATAAGTTATTAAGGGATGAATAATCACTCAATATAAATATCTCTCACTTATTTAAA	–	0.118	0.107
CGACATGTCCCGCTTCTTTCATTAATCCGTTAGCAACTGTTTTACTATATACATATACCTTTTAAGAGGAGGAAT	1.11	–	–
CGACATGTCCCGCTTCTTTCATTAACCCGTTAGCAACTGTTTTGCTATATACATTTACATTTTAAGAGGAGGAAT	2.01	–	–
ACAGACGAAGGAGCCGCAAAGAAGTTATTAAAGGTTGAATAATCCCTCAATATAAATATCTCTCACTTATTTAAA	–	–	0.0853
ACAGACGAAGGAGCCGCAAAGAAATTATTAAAGGATGAATAATCCCTCAATATAAATATCTCTCACTTATTTAAA	–	0.144	0.221
ACAGACGAAGGAGCCGCAAAGAAGTTATTAAGGGATGAATACTCCCACAATATAAATATCTCTCACTTATTTAAA	–	–	0.139
ACAGACGAAGGAGCCGCAAAGAAGTTATTATGGGATAAATAATCCCTCAATATAAATATCTCTCACTTATTTAAA	–	0.31	0.362
ACAGACGAAGGAGCCGCAAAGAAATTATTAAGGGATGAATAATCCCTAAATATAAATATCTCTCACTTATTTAAA	–	0.458	0.667
CGACATGTCCCGCTTCTTTCATTAATCCGTCAGCAACTGTATTGCTATATACATTTACCTTTTAAGAGGAGGAAT	0.214	–	–
CGACATGTCCCGCTTCTTTCATTAATCCGTTAGCAACATTTTTGCTATATACATTTACCTTTTAAGAGGAGGAAT	1.12	–	–
ACAGACGAAGGAGCCGCAAAGAAGTTATTAAGGGATCAATAATCCCTCAAAATAAATATCTCTCACTTATTTAAA	–	0.214	0.315
ACAGACGAAGGAGCCGCAAAGAAGTTATTAAGGGAAGAATAATCGCTCAATATAAATATCTCTCACTTATTTAAA	–	–	0.114
CGACATGTCCCGCTTCTTTCATTAATCCGTTATCAACTGTTTTGCTATATACATTTACCTTTTAAGAGGAGGAAT	0.298	–	–
CGACATGTCCCGCTTCTTTCATTAATCCGTTAGCACCTGTTTTGCTATATATATTTACCTTTTAAGAGGAGGAAT	1.44	–	–
CGACATGTCCCGCTTCTTTCATTAATCCGTCCGCAACTGTTTTGCTATATACATTTACCTTTTAAGAGGAGGAAT	0.264	–	–
ACAGACGAAGGAGCCGCAAAGAAGTTATTAAGGGATGAATAATACCTCAAGATAAATATCTCTCACTTATTTAAA	–	0.102	0.124
CGACATGTCCCGCTTCTTTCATTAATCTGTTAGCAACTGTTTTGCTATATACATTGACCTTTTAAGAGGAGGAAT	0.991	–	–
ACAGACGAAGGAGCCGCAAAGAAGTTATTAAGGGATGAATAATCCCTCAATATAATGATCTCTCACTTATTTAAA	–	–	0.348
ACAGACGAAGGAGCCGCAAAGAAGTTATTTAGGGATGAATAATCCATCAATATAAATATCTCTCACTTATTTAAA	–	–	0.34
CGACATGTCCCGCTTCTTTCATTAATCTGTTAGCAACTGTTATGCTATATACATTTACCTTTTAAGAGGAGGAAT	0.799	–	–
ACAGACGAAGGAGCCGCAAAGAAGTTATTACGGGATGAATAATACCTCAATATAAATATCTCTCACTTATTTAAA	–	–	0.112
ACAGACGAAGGAGCCGCAAAGAAGTTATTAAGGGATGAATTATCCCTGAATATAAATATCTCTCACTTATTTAAA	–	0.396	–

Reference: the supplement of paper PMC11780869
